Our source for the Kd values is patent publication US20210017284A1 (ABEOME, published 2021).

The target in one test is T1, human PD-L1 (human, UniProt Q9NZQ7 19-238, limits assumed).
T1 construct: also called CD274; B7-H1
Kind of test: SPR (format not described).

A further test concerns the target T2, cynomolgus monkey PD-L1 (cynomolgus monkey, UniProt G7PSE7 19-238).
T2 construct: PD-L1 is implied
Kind of test: SPR (format not described).

T1 sequence (Q9NZQ7 19-238 limits assumed): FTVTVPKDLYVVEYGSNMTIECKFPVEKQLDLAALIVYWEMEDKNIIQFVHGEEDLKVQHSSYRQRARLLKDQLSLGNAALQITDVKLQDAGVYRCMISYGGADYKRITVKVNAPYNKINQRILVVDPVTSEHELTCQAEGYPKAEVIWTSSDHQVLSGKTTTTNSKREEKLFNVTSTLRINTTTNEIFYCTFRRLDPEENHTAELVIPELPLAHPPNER
T2 sequence (G7PSE7 entry or part of it): as the sequence (Q9NZQ7 19-238 limits assumed) above, with A33T, A34S, S62N, R68Q, Q82R, F173L, T185A, T192I, H215L counted along it

B1: hABM101.11 (IgG4) (antibody, V domains shown)
VH: QVQLVQSGPEVKKPGASVKVSCKASGYTFTENSMHWVRQSHGKSLEWMGGINPNNGGTSYNQKFKGKVTMTTDKSTSTAYMELRSLTSDDTAVYYCARPYYYGYREDYFDYWGQGTTLTVSS
VL: EIVMTQSPGTLSLSPGERATLSCRASSSVSYMYWYQQKPGQAPRPLIYLTSNLASGIPDRFSGSGSGTDYTLTISRLEPEDFAVYYCQQWSSYPPTFGQGTKVEIKR
For orientation: Kd means the constant that tells how readily two partners part at equilibrium. Take B1: the Kd in the test with human PD-L1 is 0.349 nM.

B2: hABM101.11 (IgG1) (antibody, V domains shown)
VH: QVQLVQSGPEVKKPGASVKVSCKASGYTFTENSMHWVRQSHGKSLEWMGGINPNNGGTSYNQKFKGKVTMTTDKSTSTAYMELRSLTSDDTAVYYCARPYYYGYREDYFDYWGQGTTLTVSS
VL: EIVMTQSPGTLSLSPGERATLSCRASSSVSYMYWYQQKPGQAPRPLIYLTSNLASGIPDRFSGSGSGTDYTLTISRLEPEDFAVYYCQQWSSYPPTFGQGTKVEIKR
Turning to B2, the values for the Kd with cynomolgus monkey PD-L1 and with human PD-L1 were 0.579 nM and 0.374 nM, respectively.
